According to patent US20050095615:

Target: His6/LUMIO tag/MBP protein expressed from pET160-GW/MBP [MBP: P0AEX9]

B1: TEV protease (protein)
chain: GESLFKGPRDYNPISSTICHLTNESDGHTTSLYGIGFGPFIITNKHLFRRNNGTLLVQSLHGVFKVKNTTTLQQHLIDGRDMIIIRMPKDFPPFPQKLKFREPQREERICLVTTNFQTKSMSSMVSDTSCTFPSSDGIFWKHWIQTKDGQCGSPLVSTRDGFIVGIHSASNFTNTNNYFTSVPKNFMELLTNQEAQQWVSGWRLNADSVLWGGHKVFMSKPEEPFQPVKEATQLMNELVYSQ
cleavage by TEV protease: The TEV protease efficiently cleaves the N-terminal sequences from partially purified protein.
digestion with TEV protease analyzed by SDS-PAGE: The results demonstrated that the pET160-DEST vector can encode a functional TEV cleavage site.
